Data on ten molecules can be found in patent US20240043551A1 (ADLAI NORTYE BIOPHARMA, published 2024).

Test [1] addresses T1, Human TNFR1 (Acro Biosystem, TN1-H5222) (human, UniProt P19438 30-211).
T1 construct: Bought protein; also called TNF receptor type 1; CD120a
T1 sequence (looked up): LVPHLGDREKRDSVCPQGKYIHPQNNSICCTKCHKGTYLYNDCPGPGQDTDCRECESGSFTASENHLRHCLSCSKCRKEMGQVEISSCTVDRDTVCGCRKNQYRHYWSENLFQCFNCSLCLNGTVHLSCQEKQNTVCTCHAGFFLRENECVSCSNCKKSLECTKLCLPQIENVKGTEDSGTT
Briefly: ELISA, receptor coated at 1 µg/mL. As to the method:
(§1) Human TNFR2 (Acro Biosystem, TN2-H5227), Human TNFR1 (Acro Biosystem, TN1-H5222), Cynomolgus TNFR2 (Sino Biological, 90102-CO8H) or mouse TNFR2 (R&D systems, 426-R2-050/CF) was coated on high binding polystyrene flat bottom micro-titer plates (Thermo Scientific, 3455) in PBS (PH=7.4, Gibco,10010-031) at 1 μg/mL and 100 μL per well. Plates were incubated at 4° C. overnight.
(§2) Plates were warmed up to room temperature the next day and washed with 200 μL PBS containing 0.1% Tween 20 (Life technologies, 003005) per well for 3 times. Plates were blocked with 200 μL PBS buffer containing 1% BSA (Fisher Scientific, BP1600-100) per well for 1 hour at 37° C. Antibodies was titrated from 5 μg/mL in a 5-fold dilution series, distributed 100 μL per well and incubated at 37° C. for 1 hour. Human IgG1 isotype control (BioxCell, BE0297) was used as negative control. Plates were washed with 200 μL PBS containing 0.1% Tween 20 (Life technologies, 003005) per well for 3 times. Goat anti-Human IgG Fc Secondary Antibody-HRP conjugate (Invitrogen, A18817) were distributed at 0.5μg/mL and 100 μL per well to detect bound antibodies. After 1-hour incubation of secondary antibody at 37° C., plates were washed with 200 μL PBS containing 0.1% Tween 20 (Life technologies, 003005) per well for 3 times. Plates were developed using TMB Substrate Solution (eBioscience, 00-4201-56) and stopped with ELISA stop solution (Invitrogen, SSO4). The level of bound antibodies was determined by reading absorbance at 450 nm. Mouse anti-human TNFR1 antibody (ThermoFisher Scientific, MA1-81005) and goat anti mouse IgG secondary antibody-HRP conjugate (Invitrogen, 62-5520) were used as positive control for human TNFR1 detection. Armenian Hamster anti-mouse TNFR2 antibody (InVivoMab, BE0247) and HRP-Goat anti-Armenian Hamster IgG (H+L) Secondary Antibody (Invitrogen, PA1-32045) were used as positive control for mouse TNFR2 detection.

Test [2] deals with T2, mouse TNFR2 (R&D systems, 426-R2-050/CF) (mouse, UniProt P25119 23-258).
T2 construct: Bought protein
T2 sequence (looked up): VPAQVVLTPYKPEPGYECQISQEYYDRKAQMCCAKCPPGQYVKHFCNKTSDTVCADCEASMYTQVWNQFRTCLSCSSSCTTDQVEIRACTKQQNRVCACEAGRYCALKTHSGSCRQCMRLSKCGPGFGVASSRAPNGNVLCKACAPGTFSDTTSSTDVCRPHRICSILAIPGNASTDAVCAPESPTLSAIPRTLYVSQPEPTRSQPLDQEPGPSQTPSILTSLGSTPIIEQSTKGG
Briefly: ELISA, receptor coated at 1 µg/mL. As to the method:
as §1, §2

The target in test [3] is T3, rat TNFR2 (R&D systems, 8348-R2-050) (rat, UniProt Q80WY6 23-258).
T3 construct: Bought protein
T3 sequence (looked up): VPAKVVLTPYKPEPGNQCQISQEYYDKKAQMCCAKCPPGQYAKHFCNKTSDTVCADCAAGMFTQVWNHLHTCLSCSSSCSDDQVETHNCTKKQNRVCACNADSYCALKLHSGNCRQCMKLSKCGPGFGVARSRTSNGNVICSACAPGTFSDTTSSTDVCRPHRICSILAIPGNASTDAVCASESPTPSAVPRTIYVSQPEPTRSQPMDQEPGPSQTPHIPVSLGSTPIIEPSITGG
Briefly: ELISA, receptor coated at 1 µg/ml. The procedure:
Plates were incubated at 4° C. overnight. Antibodies was titrated from 100 μg/ml in a 5-fold dilution series, and distributed 100 μL, per well and incubated at 37° C. for 1 hour. Human IgG1 isotype control (BioxCell, BE0297) was used as negative control. TNFR2 Polyclonal Antibody (Invitrogen, PAS-80159) and HRP conjugated Goat anti-Rabbit IgG Fc Secondary Antibody (Invitrogen, A16116) were used as positive control for rat TNFR2 detection.
On the technique in general: An ELISA detects its analyte on a solid surface through an enzyme-linked reagent.

B1: TN36-10 (antibody, V domains shown)
VH: EVQLVESGGGLIQPGGSLRLSCAASGFSLSSSAVSWVRQAPGKGLEWIGAIGSGGTSYYSNWAKSRFTISRDTSKNTVYLQMNSLRAEDTAVYFCARDPNSSDYPYGAYGMGLWGPGTLVTVSS
VL: DIQMTQSPSSLSASVGDRVTITCQVSQSISSYLSWYQQKPGKAPKLLIYYASTLASGVPSRFSGSGSGTDFTLTISSLQPEDFATYYCQQGYITSNVGNAFGGGTKVEIK
notes: Humanized; also called AL4/AL8
In the case of B1, the figures for the binding result in test [1], in test [2] and in test [3] were “no binding (tested: titrated from 5 µg/mL)”, “no binding (tested: titrated from 5 µg/mL)” and “no binding (tested: titrated from 100 µg/ml)”, respectively.

B2: TN36-17 (antibody, human IgG1, V domains shown)
VH: EVQLVESGGGLVQPGGSLRLSCAASGFSLSSSAVSWVRQAPGKGLEWIGAIGSGGTSYYSNWAKSRFTISRDNSKNTLYLQMNSLRAEDTAVYYCARDPNSSDYPYGAYGMGLWGQGTLVTVSS
VL: DIQLTQSPSFLSASVGDRVTITCQVSQSISSYLSWYQQKPGKAPKLLIYYASTLASGVPSRFSGSGSGTEFTLTISSLQPEDFATYYCQQGYITSNVGNAFGGGTKVEIK
notes: Humanized; also called AL5/AL11
As to B2, the results for the binding result in test [1], in test [2] and in test [3] were “no binding (tested: titrated from 5 µg/mL)”, “no binding (tested: titrated from 5 µg/mL)” and “no binding (tested: titrated from 100 µg/ml)”, respectively.

B3: TN36-19 (antibody, human IgG1, V domains shown)
VH: EVQLVESGGGLVQPGGSLRLSCAASGFSLSSSAVSWVRQAPGKGLEWIGAIGSGGTSYYSNWAKSRFTISRDNSKNTLYLQMNSLRAEDTAVYYCARDPNSSDYPYGAYGMGLWGPGTLVTVSS
VL: DIQMTQSPSSLSASVGDRVTITCQVSQSISSYLSWYQQKPGKPPKLLIYYASTLASGVPSRFSGSGSGTDFTLTISSLQPEDFATYYCQQGYITSNVGNAFGGGTKVEIK
notes: Humanized; also called AL6/AL9
As to B3, the binding result in test [1] is recorded as “no binding (tested: titrated from 5 µg/mL)”; in test [2] it was “no binding (tested: titrated from 5 µg/mL)”; in test [3], “no binding (tested: titrated from 100 µg/ml)”.

B4: TN36-11 (antibody, human IgG1, V domains shown)
VH: EVQLVESGGGLIQPGGSLRLSCAASGFSLSSSAVSWVRQAPGKGLEWIGAIGSGGTSYYSNWAKSRFTISRDTSKNTVYLQMNSLRAEDTAVYFCARDPNSSDYPYGAYGMGLWGPGTLVTVSS
VL: DIQMTQSPSSLSASVGDRVTITCQVSQSISSYLSWYQQKPGKPPKLLIYYASTLASGVPSRFSGSGSGTDFTLTISSLQPEDFATYYCQQGYITSNVGNAFGGGTKVEIK
notes: Humanized; also called AL4/AL9
As for B4, the binding result was “no binding (tested: titrated from 5 µg/mL)” in test [1], “no binding (tested: titrated from 5 µg/mL)” in test [2] and “no binding (tested: titrated from 100 µg/ml)” in test [3].

B5: TN36-14 (antibody, human IgG1, V domains shown)
VH: EVQLVESGGGLVQPGGSLRLSCAASGFSLSSSAVSWVRQAPGKGLEWIGAIGSGGTSYYSNWAKSRFTISRDNSKNTLYLQMNSLRAEDTAVYYCARDPNSSDYPYGAYGMGLWGQGTLVTVSS
VL: DIQMTQSPSSLSASVGDRVTITCQVSQSISSYLSWYQQKPGKAPKLLIYYASTLASGVPSRFSGSGSGTDFTLTISSLQPEDFATYYCQQGYITSNVGNAFGGGTKVEIK
notes: Humanized; also called AL5/AL8
As to B5, the binding result in test [1] was “no binding (tested: titrated from 5 µg/mL)”; in test [2], “no binding (tested: titrated from 5 µg/mL)”; in test [3] it was “no binding (tested: titrated from 100 µg/ml)”.

B6: TN36-15 (antibody, human IgG1, V domains shown)
VH: EVQLVESGGGLVQPGGSLRLSCAASGFSLSSSAVSWVRQAPGKGLEWIGAIGSGGTSYYSNWAKSRFTISRDNSKNTLYLQMNSLRAEDTAVYYCARDPNSSDYPYGAYGMGLWGQGTLVTVSS
VL: DIQMTQSPSSLSASVGDRVTITCQVSQSISSYLSWYQQKPGKPPKLLIYYASTLASGVPSRFSGSGSGTDFTLTISSLQPEDFATYYCQQGYITSNVGNAFGGGTKVEIK
notes: Humanized; also called AL5/AL9
Consider B6, for which the binding result in test [1] is listed as “no binding (tested: titrated from 5 µg/mL)”; in test [2] it was “no binding (tested: titrated from 5 µg/mL)”; in test [3] it was “no binding (tested: titrated from 100 µg/ml)”.

B7: TN36-16 (antibody, human IgG1, V domains shown)
VH: EVQLVESGGGLVQPGGSLRLSCAASGFSLSSSAVSWVRQAPGKGLEWIGAIGSGGTSYYSNWAKSRFTISRDNSKNTLYLQMNSLRAEDTAVYYCARDPNSSDYPYGAYGMGLWGQGTLVTVSS
VL: DIQMTQSPSFLSASVGDRVTITCQVSQSISSYLSWYQQKPGKAPKLLIYYASTLASGVPSRFSGSGSGTDFTLTISSLQPEDFATYYCQQGYITSNVGNAFGGGTKVEIK
notes: Humanized; also called AL5/AL10
In the case of B7, the binding result in test [1] is “no binding (tested: titrated from 5 µg/mL)”; in test [2], “no binding (tested: titrated from 5 µg/mL)”; in test [3], “no binding (tested: titrated from 100 µg/ml)”.

B8: TN36-12 (antibody, human IgG1, V domains shown)
VH: EVQLVESGGGLIQPGGSLRLSCAASGFSLSSSAVSWVRQAPGKGLEWIGAIGSGGTSYYSNWAKSRFTISRDTSKNTVYLQMNSLRAEDTAVYFCARDPNSSDYPYGAYGMGLWGPGTLVTVSS
VL: DIQMTQSPSFLSASVGDRVTITCQVSQSISSYLSWYQQKPGKAPKLLIYYASTLASGVPSRFSGSGSGTDFTLTISSLQPEDFATYYCQQGYITSNVGNAFGGGTKVEIK
notes: Humanized; also called AL4/AL10
As to B8, the binding result in test [1] is “no binding (tested: titrated from 5 µg/mL)”; in test [2], “no binding (tested: titrated from 5 µg/mL)”; in test [3], “no binding (tested: titrated from 100 µg/ml)”.

B9: TN36-18 (antibody, human IgG1, V domains shown)
VH: EVQLVESGGGLVQPGGSLRLSCAASGFSLSSSAVSWVRQAPGKGLEWIGAIGSGGTSYYSNWAKSRFTISRDNSKNTLYLQMNSLRAEDTAVYYCARDPNSSDYPYGAYGMGLWGPGTLVTVSS
VL: DIQMTQSPSSLSASVGDRVTITCQVSQSISSYLSWYQQKPGKAPKLLIYYASTLASGVPSRFSGSGSGTDFTLTISSLQPEDFATYYCQQGYITSNVGNAFGGGTKVEIK
notes: Humanized; also called AL6/AL8
For the molecule B9, the binding result in test [1] is listed as “no binding (tested: titrated from 5 µg/mL)”; in test [2], “no binding (tested: titrated from 5 µg/mL)”; in test [3] it was “no binding (tested: titrated from 100 µg/ml)”.

B10: TN36-13 (antibody, human IgG1, V domains shown)
VH: EVQLVESGGGLIQPGGSLRLSCAASGFSLSSSAVSWVRQAPGKGLEWIGAIGSGGTSYYSNWAKSRFTISRDTSKNTVYLQMNSLRAEDTAVYFCARDPNSSDYPYGAYGMGLWGPGTLVTVSS
VL: DIQLTQSPSFLSASVGDRVTITCQVSQSISSYLSWYQQKPGKAPKLLIYYASTLASGVPSRFSGSGSGTEFTLTISSLQPEDFATYYCQQGYITSNVGNAFGGGTKVEIK
notes: Humanized; also called AL4/AL11
Take B10: the binding result in test [1] is given as “no binding (tested: titrated from 5 µg/mL)”; in test [2], “no binding (tested: titrated from 5 µg/mL)”; in test [3], “no binding (tested: titrated from 100 µg/ml)”.
